Experimental data as given in patent US9539338B2, “Polymer-based protein engineering methods to rationally tune enzyme activity, pH-dependence and stability” (Carnegie Mellon University, priority 2013, dated 2017).

How the values were obtained:
[1] = Stability study: irreversible inactivation at 40° C., pH 7-9, residual activity; format: physicochemical; conditions: for half-life t1/2: 40 μM enzyme
Procedure: Native CT and the prepared conjugates (1.5 to 2.0 mL of 40.0 μM) were incubated in 100 mM sodium phosphate buffer at different pH's at 40° C. Aliquots (20 μL) were removed and added into sodium phosphate buffer (180 μL, 100 mM, at 0° C.). The residual activity was calculated as a ratio of initial rates of hydrolysis reaction at given incubation time over the initial activity, which monitored spectrophotometrically as described above. Half-lives for enzyme longevity were estimated by non-linear curve fitting (equation for single exponential decay) using Enzfitter.
CT inactivation can occur through unfolding and/or autolysis. The polymer component of the PBPE conjugates may stabilize the enzyme by increasing the energy needed to unfold the protein and also by inhibiting autolysis directly. Since the autolysis reaction of proteases is favored when the enzyme concentration is high, (Yang, Z.; Domach, M.; Auger, R.; Yang, F. X.; Russell, A. J. Enzyme Microb. Technol. 1996, 18, 82-89) stability at relatively high enzyme concentration (40 μM) was investigated. At 40° C. the residual activity of the enzyme was measured as a function of pH and shown in FIG. 8, and the first order rate constant for deactivation and half-life were calculated (Table 5).

[2] = Enzyme stability at 25° C. or 40° C., first order inactivation; format: physicochemical; conditions: 1 mg enzyme/mL, pH 8.0
Procedure: Native CT and CT conjugates (1 mg enzyme/mL) were dissolved in 0.1 M sodium phosphate buffer (pH 8.0) and incubated in a water bath at either 25° C. or 40° C. At various time points, aliquots were removed and diluted to 0.1 mg enzyme/mL using 0.1 M phosphate buffer (pH 8.0). Residual activity was calculated as the percentage of activity remaining relative to the activity at time zero. Substrate (Suc-AAPF-pNA) concentration was kept constant at 288 μM for each sample and time points.

[3] = biological target: T1, NS-AAPF-pNA (Bos taurus, UniProt P00766); assay: CT and CT conjugate biocatalytic activity, 2.5 to 37.5° C.; format: biochemical
T1 construct: purchased Sigma Aldrich; host or cells: bovine pancreas
Procedure: N-succinyl-L-Ala-L-Ala-L-Pro-L-Phe-p-nitroanilide was used as a substrate for enzyme bioactivity assays. In a cuvette, 0.1 M sodium phosphate buffer (2820-2970 μL, pH 8.0), substrate (0-150 μL, 6 mg/mL in DMSO (0-500 μM)), and enzyme (30 μL, 0.1 mg enzyme/mL 0.1 M pH 8.0 sodium phosphate buffer (0.04 μM)) were mixed. The rate of the hydrolysis was determined by recording the increase in absorbance at 412 nm for the first 30 seconds after mixing. KM and kcat values were calculated using EnzFitter software when plotting substrate concentration versus initial hydrolysis velocity.
CT conjugate kinetics were examined at a variety of temperatures (2.5° C., 7° C., 16.5° C., 24.5° C., 33° C., and 37.5° C.) to determine the effect of polymer UCST and LCST phase transitions and molecular weight on enzyme kinetics (see FIGS. 11(a)-(c) and Table 16 below).

[4] = biological target: T2, pepsin (Sus scrofa, UniProt P00791); assay: Stability to pepsin degradation; format: in vitro ADME, porcine; conditions: 167 mM HCl, 37° C.
T2 construct: purchased Sigma Aldrich; host or cells: porcine stomach mucosa
T2 sequence (P00791 60-385): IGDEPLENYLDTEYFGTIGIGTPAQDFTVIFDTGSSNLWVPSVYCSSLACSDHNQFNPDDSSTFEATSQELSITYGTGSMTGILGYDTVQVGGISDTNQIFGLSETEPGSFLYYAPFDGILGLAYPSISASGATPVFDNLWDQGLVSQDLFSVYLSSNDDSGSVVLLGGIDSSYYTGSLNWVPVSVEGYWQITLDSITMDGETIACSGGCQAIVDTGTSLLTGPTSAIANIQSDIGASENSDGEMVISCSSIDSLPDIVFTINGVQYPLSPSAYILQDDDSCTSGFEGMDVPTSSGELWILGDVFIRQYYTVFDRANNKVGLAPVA
Procedure: Native CT and CT-conjugates (4 μM) were incubated in 167 mM HCl with 16 nM pepsin at 37° C. in 50 μL aliquots. Samples were retrieved at specified time points and residual activity was measured in 0.1 M sodium phosphate buffer (pH 8.0) at 25° C. with Suc-AAPF-pNA as substrate (288 μM). Each time point was measured in duplicate and residual activity was calculated as the ratio of activity remaining from time zero. As a control, pepsin (16 nM) bioactivity towards Suc-AAPF-pNA was measured at pH 8.0 and no product formation was observed.

[5] = Stability in artificial gastric acid solution, 167 mM HCl, 37° C. (chymotrypsin-pQA); format: physicochemical; conditions: 167 mM HCl (pH 1)
Procedure: Native CT and conjugates (1.5 to 2.0 mL, 4.0 μM) were incubated in 100 mM sodium phosphate buffer (pH 7.0) at 50 or 60° C., and an artificial gastric acid solution (167 mM HCl aq. pH 1.5) at 37° C. Aliquots (50 μL) were removed and kept at 0° C. before measuring residual activity. The residual activity was calculated as a ratio of initial rates of hydrolysis reaction at given incubation time over the initial activity for each specific sample.

[6] = Size measurements during 167 mM HCl (pH 1) incubation; format: physicochemical
Procedure: CT conjugates (4 μM) and native CT (29 μM) passed through a […] cellulose filter were incubated in 167 mM HCl at 37° C. in 1 mL aliquots. Aliquots were removed from incubation at each specified time point. Hydrodynamic diameter was then determined using a Malvern zetasizer nano-ZS at 25° C. Intensity PSD measurements, averaged over five sample runs at each time point, were used to calculate hydrodynamic diameter (Dh).

## α-Chymotrypsin (CT) from bovine pancreas (type II) [Native CT]
[1]; pH 7.0, 40° C.
  half-life t1/2: 7.15 ± 0.91 h
[1]; pH 7.0, 40° C., listed as native enzyme
  half-life t1/2: 7.2 h
[1]; pH 7, 40° C., after 6 h
  initial activity retained: 50%
[1]; pH 8.0, 40° C.
  half-life t1/2: 1.95 ± 0.25 h
[1]; pH 9.0, 40° C.
  half-life t1/2: 1.53 ± 0.20 h
[1]; pH 9, 40° C., after 6 h
  biocatalytic activity lost: 70-80%
[2]; 25° C.
  kinact: 0.13 ± 1.2 × 10^−2 days−1
  t1/2: 5.43 ± 0.51 days
[2]; 40° C.
  kinact: 6.61 ± 0.47 day⁻¹
  t1/2: 0.10 ± 7.5 × 10^−3 days
[3]; 2.5° C., 0.1 M sodium phosphate pH 8.0
  Km: 30 ± 5.1 µM
[3]; 2.5° C., pH 8.0
  kcat: 8.9 ± 0.4 s⁻¹
[3]; 2.5° C., pH 8.0, listed as native chymotrypsin
  kcat: 8.9 ± 0.4 s⁻¹
[3]; 7° C., pH 8.0
  Km: 29 ± 6.9 µM
  kcat: 9.7 ± 0.5 s⁻¹
[3]; 7° C., pH 8.0, listed as native chymotrypsin
  kcat: 9.7 ± 0.5 s⁻¹
[3]; 16.5° C., pH 8.0
  Km: 37 ± 8.6 µM
  kcat: 16 ± 0.9 s⁻¹
[3]; 16.5° C., pH 8.0, listed as native chymotrypsin
  kcat: 16 ± 0.9 s⁻¹
[3]; 24.5° C., pH 8.0
  Km: 51 ± 8.7 µM
  kcat: 25 ± 1.3 s⁻¹
[3]; 24.5° C., pH 8.0, listed as native chymotrypsin
  kcat: 25 ± 1.3 s⁻¹
[3]; 33° C., pH 8.0
  Km: 57 ± 5 µM
  kcat: 36 ± 1.3 s⁻¹
[3]; 33° C., pH 8.0, listed as native chymotrypsin
  kcat: 36 ± 1.3 s⁻¹
[3]; 37.5° C., pH 8.0
  Km: 59 ± 6.9 µM
  kcat: 47 ± 1.7 s⁻¹
[3]; 37.5° C., pH 8.0, listed as native chymotrypsin
  kcat: 47 ± 1.7 s⁻¹
[4]
  time after which all activity was lost: 75 min
[5]
  time after which all activity was lost: 3 h
[6]; 37° C., after 2 hours
  increase of hydrodynamic diameter (Dh): 9 fold
[6]; time zero
  hydrodynamic diameter Dh at time zero: 6.3±0.5 nm
